The supplement of paper PMC12042874
± gives the uncertainty stated by the source.

Assay: amyloid nucleation score (Sup35N fusion, yeast selection) (log enrichment); library NNK2; higher = more nucleation; inactive = no reads after selection
Outline: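 For the nucleation score, DiMSum gave the log enrichment of output over input reads, centred on the mode score of non-aggregating sequences. Psi-negative yeast expressing Sup35N fused to peptides of 20 random codons were induced with 100 μM copper sulfate for 24 hours and grown 7 days at 30°C on medium lacking adenine and uracil. Input and output plasmid inserts were Illumina-sequenced, and sequences with under 100 input reads were excluded.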

Substance | amyloid nucleation score
NLKIMLIRTIVYHDWSTMHL | 7.161 ± 0.061
NLMGFCYVSAEWVFGGRPGY | 1.97 ± 0.14
NLQLTFGS | -0.202 ± 0.21
NLRMVG | 0.182 ± 1.1
NLRSYIRGSLFGFCSRLWEN | 3.09 ± 0.08
NLSCNLFVSFWYGW | 4.67 ± 0.068
NLSRRCKIADWSIHCATIHE | -0.235 ± 1.1
NLWFSHDITYHYTYFDRSRA | 4.52 ± 0.087
NLWVCFWSDSCFT | 8.089 ± 0.045
NLYSLPQEDRSLNDEKGG | 0.121 ± 0.49
NLYTYAVKAVSYSMTGVFIS | -0.114 ± 1
NMFRIVASTY | 0.598 ± 0.47
NMNLVILDTHN | 2.86 ± 0.13
NMRHI | 0.75 ± 0.41
NMRRYLIDMKGVEVLGFMCS | inactive
NMYLDVRRSDGICGHIY | -1.28 ± 1
NNATLGQAFSRQ | 0.542 ± 0.17
NNGPSKT | 0.51 ± 0.54
NNKFLQVSYS | -0.409 ± 0.78
NNLGKEWKNIWGECLRRVAP | 4.48 ± 0.079
NNLTKWLNHWRYFRFSSALE | -0.178 ± 0.5
NNMPFCNYEAFNFYNGMSAF | -1.55 ± 1.1

Substance | amyloid nucleation score
NNRHLSPVVRSY | inactive
NNRSGYEYVIEFRLTSAVHF | 2.1 ± 0.13
NNSMLLSDTLLGYRRTGLDC | -0.176 ± 0.3
NNTNIECSWWIYVWSRHNNR | 5.99 ± 0.061
NNWYNTYYKSIKASQPRSSR | -0.797 ± 1.1
NPLYEGSFFWGWKFIDFRQH | 0.131 ± 1
NPSCTRKVLVYSY | 0.359 ± 0.43
NPVRISL | 0.214 ± 0.28
NPYKLTLPLTSLLLYSIPRA | -0.127 ± 1.1
NPYTCMKTHYNRRNI | 3.41 ± 0.15
NQLDTNSIMLVFLSNMMLGV | 3.81 ± 0.056
NQNCLHTTCVCSRIVSDAAV | 6.483 ± 0.038
NQSESFHGLDHFTRNHGGCR | inactive
NQTGSRYRVFGNFHVTACFV | 0.838 ± 0.18
NQYLSMRTAHSGEVYQPLVF | 0.859 ± 0.8
NRDVVKKLPGPSSFVMT | -0.552 ± 0.44
NRFMN | -0.3 ± 0.46
NRFYIWRSDRNYTLVACRSK | -0.237 ± 0.79
NRGSGSAGMVSLLNNSWRWA | 1.48 ± 0.43
NRGWSFKLQWHYSLSYTS | 4 ± 0.084
NRKEQVVPLHVRSPI | 1.13 ± 0.17
NRLERMLLTDTDVSEKGSLG | -0.204 ± 0.54

Substance | amyloid nucleation score
NRLYSNRGQLNSLCISWFSG | inactive
NRRLRHIWRNNSLTSKN | -0.279 ± 0.25
NRVVHFISIFGFMNS | 3.6 ± 0.098
NSAIVLHTSYIHFVFYSVFY | -0.403 ± 0.63
NSCSWDSIITLVVQWLARQH | 6.342 ± 0.039
NSFRISGLVDLVNNLSGYLS | -1.34 ± 0.61
NSIAYPACLNKWGWIKFSSY | -1.41 ± 0.29
NSIVWGIHGFVLTLVFFTCF | -0.849 ± 1
NSLHSDSVLIKERDADKSTR | 1.73 ± 0.14
NSLVYCKKPSLPFHHGCK | -0.032 ± 0.42
NSLYRGRRHRAYDINVSFVK | -0.392 ± 0.48
NSRQYSVMIVQLIPCCQLIP | 0.033 ± 0.6
NSRTGTLREVHYLPDST | 5.1 ± 0.054
NSSSYVDFGTICMDSIWMS | 0.041 ± 0.53
NSWFLYRCKFVLRHSYVN | inactive
NSYSGAVLT | -0.464 ± 1.1
NTANKFSLFKTGMVWVSFFT | 2.88 ± 0.099
NTEEDDKRVRMGELVVEYSN | 1.36 ± 0.17
NTGFTLMGCWPMYYCWSFSW | -0.073 ± 1
NTLDSGPNGGWLISTY | inactive
NTLTTFVIGGCCLRFEASYM | 10.52 ± 0.077
NTLVSVYEYFSMWGRSCRWS | 0.141 ± 0.61

Substance | amyloid nucleation score
NTRNDWQS | 2.13 ± 0.15
NTSMNCRKVMYDMNIYNLSK | 3.49 ± 0.11
NTSQDG | 5.15 ± 0.087
NVDLFWQWVYVYWRGARVEF | 0.075 ± 0.43
NVFTNTLVN | 8.667 ± 0.081
NVLLKNLESPIFYRDMTTL | -0.252 ± 0.76
NVLQLDPFFAYSVRCILGSE | inactive
NVRDYRIFDL | -0.877 ± 0.78
NVRIVYRPAGPFG | -0.347 ± 0.39
NVRVRLET | 0.027 ± 0.27
NVSGMFISMLIFRIMHHGQC | 5.11 ± 0.055
NVVGRYKSSDSLTYARWGWR | -0.064 ± 0.34
NVVIRNRFWMNSGRARISAY | -0.428 ± 0.49
NWKANYEFVRLIVVLLSSRR | 0.202 ± 0.64
NWLCRWWQGWNLT | 0.739 ± 0.28
NWPMGGHVYKHRVSHSG | 0.095 ± 0.53
NWQVPKVFQVLNYA | 0.054 ± 0.79
NWRTCLALNCLTDPAKYLIN | -0.725 ± 0.76
NWSGMPLPFLTFRKRFVEV | -0.998 ± 1
NWVLVVGSSWEFLSGSASGG | 2.18 ± 0.17
